Data taken from patent US20120129768A1.
Non-standard residues stand in square brackets, D forms with d. No end group written: not given here.

Molecular target: Glucagon-like peptide-1 receptor (GLP1R)
Test: cell-based or functional assay

B1: HS-20003 (peptide)
peptide: H[dA]EGTFTSDVSSYLEEEAAKEFIAWLVRGGPSSGAPPPSK
modifications: not fully specified (residue 40); also: palmitoyl on alpha-amino of C-terminal Lys, chain built on its epsilon amino
EC50 (nM), cAMP-response-element luciferase reporter in HEK293 cells with GLP1R: 0.000719 nM
Maximum reaction rate (%): 87.9%
